For orientation: Kd means the free concentration of one partner at which half of the binding sites on the other are occupied at equilibrium, for simple one-to-one binding. Lower therefore signals tighter binding. The term koff denotes the rate constant with which the complex falls apart. A high value points to fast dissociation. Broadly, the kon is the second-order rate constant of association. The low end stands for slower complex formation, the high end for faster complex formation.

In patent US20260042834A1 (HBM ALPHA THERAPEUTICS, published 2026) one finds Kd, koff and kon data, which are given here for 18 molecules.

The assay addresses T1, biotinylated CRH (human and mouse, not fully specified; biotinylated, position not stated).
T1 construct: also called Biotin-CRH; biotin-labeled CRH
T1 peptide: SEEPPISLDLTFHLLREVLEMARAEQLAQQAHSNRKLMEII
The assay is described as follows: Octet BLI, biotinylated CRH on SA sensor. On the procedure: Octet® Red 96e was used for affinity measurement. Octet® running buffer was prepared by diluting kinetics buffer 10× (Fortebio, Cat #18-1105) in PBS according to the manufacturer's instructions. Two columns of SA sensors (Fortebio, Cat #18-5019) were hydrated in running buffer for 10 mins, one for ligand capturing and the other for reference. Antibodies were 2-fold diluted and added into a 96-well plate. […] After a 60-second baseline step, sensors were dipped into analyte and buffer wells successively, with the association and dissociation time of 180 seconds and 800 seconds, respectively. […] Signals of reference wells and reference sensors were subtracted by selecting “Double reference” before data fitting.
(In general: Biolayer interferometry detects binding as a change in optical thickness at a sensor tip.)

B1: PR005656 (antibody, human IgG1, kappa, V domains shown)
VH: EVQLVESGGVLVQPGGSLRLSCAASGFTFSSYWMTWVRQAPGKGLEWVANIKQEGSEKYYVDSVKGRFTISRDNAKNSLFLQMNSLRAEDTAVYYCARTLIFDYWGQGTLVTVSS
VL: DIVMTQSPLSLPVTPGEPASISCRSSQSLLHSTGYNSLEWYLQKPGQSPQLLIYLGSNRASGVPDRFSGSGSGTDFTLKISRVEAEDVGIYYCMQTLQTPITFGQGTRLEIKR
notes: PTM-removal variant of PR004290
In turn, B1 had a dissociation constant (Kd) of 0.0627 nM, an off-rate constant (koff) of 4.55e-05 s⁻¹ and a kon of 726000 M⁻¹ s⁻¹.

B2: PR006143 (antibody, human IgG1, kappa, V domains shown)
VH: EVQLVESGGVLVQPGGSLRLSCAASGFTFSSYWMTWVRQAPGKGLEWVANIKQEGSEKYYVDSVKGRFTISRDNAKNSLFLQMNSLRAEDTAVYYCARTLIFDYWGQGTLVTVSS
VL: DIVMTQSPLSLPVTPGEPASISCRSSQSLLHSTGYHSLEWYLQKPGQSPQLLIYLGSNRASGVPDRFSGSGSGTDFTLKISRVEAEDVGIYYCMQTLQTPITFGQGTRLEIKR
notes: as for B1
In the case of B2, the Kd came to 0.0623 nM, the koff was found to be 2.85e-05 s⁻¹ and the kon was found to be 457000 M⁻¹ s⁻¹.

B3: PR006151 (antibody, human IgG1, kappa, V domains shown)
VH: EVQLVESGGVLVQPGGSLRLSCAASGFTFSSYWMTWVRQAPGKGLEWVANIKQDSSEKYYVDSVKGRFTISRDNAKNSLFLQMNSLRAEDTAVYYCARTLIFDYWGQGTLVTVSS
VL: DIVMTQSPLSLPVTPGEPASISCRSSQSLLHSTGYHSLEWYLQKPGQSPQLLIYLGSNRASGVPDRFSGSGSGTDFTLKISRVEAEDVGIYYCMQTLQTPITFGQGTRLEIKR
notes: as for B1
On to B3, for which the dissociation constant Kd is 0.16 nM, the off-rate constant (koff) is 8e-05 s⁻¹ and the kon stood at 500000 M⁻¹ s⁻¹.

B4: PR006144 (antibody, human IgG1, kappa, V domains shown)
VH: EVQLVESGGVLVQPGGSLRLSCAASGFTFSSYWMTWVRQAPGKGLEWVANIKQEGSEKYYVDSVKGRFTISRDNAKNSLFLQMNSLRAEDTAVYYCARTLIFDYWGQGTLVTVSS
VL: DIVMTQSPLSLPVTPGEPASISCRSSQSLLHSTGYNPLEWYLQKPGQSPQLLIYLGSNRASGVPDRFSGSGSGTDFTLKISRVEAEDVGIYYCMQTLQTPITFGQGTRLEIKR
notes: as for B1
Consider B4, for which binding was put at a Kd of 0.0895 nM, the koff was 4.47e-05 s⁻¹ and the kon was 499000 M⁻¹ s⁻¹.

B5: PR005662 (antibody, human IgG1, kappa, V domains shown)
VH: EVQLVESGGVLVQPGGSLRLSCAASGFTFSSYWMTWVRQAPGKGLEWVANIKQDASEKYYVDSVKGRFTISRDNAKNSLFLQMNSLRAEDTAVYYCARTLIFDYWGQGTLVTVSS
VL: DIVMTQSPLSLPVTPGEPASISCRSSQSLLHSTGYQSLEWYLQKPGQSPQLLIYLGSNRASGVPDRFSGSGSGTDFTLKISRVEAEDVGIYYCMQTLQTPITFGQGTRLEIKR
notes: as for B1
Take B5: binding was put at a Kd of 0.209 nM, the koff came out at 8.27e-05 s⁻¹ and the kon amounted to 396000 M⁻¹ s⁻¹.

B6: PR005658 (antibody, human IgG1, kappa, V domains shown)
VH: EVQLVESGGVLVQPGGSLRLSCAASGFTFSSYWMTWVRQAPGKGLEWVANIKQDGSEKYYVDSVKGRFTISRDNAKNSLFLQMNSLRAEDTAVYYCARTLIFDYWGQGTLVTVSS
VL: DIVMTQSPLSLPVTPGEPASISCRSSQSLLHSTGYQSLEWYLQKPGQSPQLLIYLGSNRASGVPDRFSGSGSGTDFTLKISRVEAEDVGIYYCMQTLQTPITFGQGTRLEIKR
notes: as for B1
As for B6, binding was characterised by a dissociation constant (Kd) of 0.179 nM, the koff is 9.11e-05 s⁻¹ and the kon stood at 509000 M⁻¹ s⁻¹.

B7: PR006149 (antibody, human IgG1, kappa, V domains shown)
VH: EVQLVESGGVLVQPGGSLRLSCAASGFTFSSYWMTWVRQAPGKGLEWVANIKQDASEKYYVDSVKGRFTISRDNAKNSLFLQMNSLRAEDTAVYYCARTLIFDYWGQGTLVTVSS
VL: DIVMTQSPLSLPVTPGEPASISCRSSQSLLHSTGYSSLEWYLQKPGQSPQLLIYLGSNRASGVPDRFSGSGSGTDFTLKISRVEAEDVGIYYCMQTLQTPITFGQGTRLEIKR
notes: as for B1
Turning to B7, the Kd was determined as 0.16 nM, the koff is 7.78e-05 s⁻¹ and the kon stood at 487000 M⁻¹ s⁻¹.

B8: PR006146 (antibody, human IgG1, kappa, V domains shown)
VH: EVQLVESGGVLVQPGGSLRLSCAASGFTFSSYWMTWVRQAPGKGLEWVANIKQDASEKYYVDSVKGRFTISRDNAKNSLFLQMNSLRAEDTAVYYCARTLIFDYWGQGTLVTVSS
VL: DIVMTQSPLSLPVTPGEPASISCRSSQSLLHSTGYDSLEWYLQKPGQSPQLLIYLGSNRASGVPDRFSGSGSGTDFTLKISRVEAEDVGIYYCMQTLQTPITFGQGTRLEIKR
notes: as for B1
Turning to B8, the Kd amounted to 0.109 nM, the koff is 4.84e-05 s⁻¹ and the kon was found to be 445000 M⁻¹ s⁻¹.

B9: PR005657 (antibody, human IgG1, kappa, V domains shown)
VH: EVQLVESGGVLVQPGGSLRLSCAASGFTFSSYWMTWVRQAPGKGLEWVANIKQDASEKYYVDSVKGRFTISRDNAKNSLFLQMNSLRAEDTAVYYCARTLIFDYWGQGTLVTVSS
VL: DIVMTQSPLSLPVTPGEPASISCRSSQSLLHSTGYNSLEWYLQKPGQSPQLLIYLGSNRASGVPDRFSGSGSGTDFTLKISRVEAEDVGIYYCMQTLQTPITFGQGTRLEIKR
notes: as for B1
Molecule B9 showed a Kd of 0.0913 nM.

B10: PR006148 (antibody, human IgG1, kappa, V domains shown)
VH: EVQLVESGGVLVQPGGSLRLSCAASGFTFSSYWMTWVRQAPGKGLEWVANIKQDASEKYYVDSVKGRFTISRDNAKNSLFLQMNSLRAEDTAVYYCARTLIFDYWGQGTLVTVSS
VL: DIVMTQSPLSLPVTPGEPASISCRSSQSLLHSTGYNPLEWYLQKPGQSPQLLIYLGSNRASGVPDRFSGSGSGTDFTLKISRVEAEDVGIYYCMQTLQTPITFGQGTRLEIKR
notes: as for B1
B10 displayed a dissociation constant Kd of 0.106 nM.

B11: PR006150 (antibody, human IgG1, kappa, V domains shown)
VH: EVQLVESGGVLVQPGGSLRLSCAASGFTFSSYWMTWVRQAPGKGLEWVANIKQDSSEKYYVDSVKGRFTISRDNAKNSLFLQMNSLRAEDTAVYYCARTLIFDYWGQGTLVTVSS
VL: DIVMTQSPLSLPVTPGEPASISCRSSQSLLHSTGYDSLEWYLQKPGQSPQLLIYLGSNRASGVPDRFSGSGSGTDFTLKISRVEAEDVGIYYCMQTLQTPITFGQGTRLEIKR
notes: as for B1
As to B11, the affinity, expressed as Kd, was 0.102 nM; the koff is 5.66e-05 s⁻¹; the kon was 555000 M⁻¹ s⁻¹.

B12: PR006153 (antibody, human IgG1, kappa, V domains shown)
VH: EVQLVESGGVLVQPGGSLRLSCAASGFTFSSYWMTWVRQAPGKGLEWVANIKQDSSEKYYVDSVKGRFTISRDNAKNSLFLQMNSLRAEDTAVYYCARTLIFDYWGQGTLVTVSS
VL: DIVMTQSPLSLPVTPGEPASISCRSSQSLLHSTGYSSLEWYLQKPGQSPQLLIYLGSNRASGVPDRFSGSGSGTDFTLKISRVEAEDVGIYYCMQTLQTPITFGQGTRLEIKR
notes: as for B1
In turn, B12 came in with a Kd of 0.171 nM, a dissociation rate constant (koff) of 8.36e-05 s⁻¹ and a kon of 487000 M⁻¹ s⁻¹.

B13: PR006142 (antibody, human IgG1, kappa, V domains shown)
VH: EVQLVESGGVLVQPGGSLRLSCAASGFTFSSYWMTWVRQAPGKGLEWVANIKQEGSEKYYVDSVKGRFTISRDNAKNSLFLQMNSLRAEDTAVYYCARTLIFDYWGQGTLVTVSS
VL: DIVMTQSPLSLPVTPGEPASISCRSSQSLLHSTGYDSLEWYLQKPGQSPQLLIYLGSNRASGVPDRFSGSGSGTDFTLKISRVEAEDVGIYYCMQTLQTPITFGQGTRLEIKR
notes: as for B1
Consider B13, for which the Kd was 0.123 nM, the koff came out at 4.08e-05 s⁻¹ and the kon came to 333000 M⁻¹ s⁻¹.

B14: PR006147 (antibody, human IgG1, kappa, V domains shown)
VH: EVQLVESGGVLVQPGGSLRLSCAASGFTFSSYWMTWVRQAPGKGLEWVANIKQDASEKYYVDSVKGRFTISRDNAKNSLFLQMNSLRAEDTAVYYCARTLIFDYWGQGTLVTVSS
VL: DIVMTQSPLSLPVTPGEPASISCRSSQSLLHSTGYHSLEWYLQKPGQSPQLLIYLGSNRASGVPDRFSGSGSGTDFTLKISRVEAEDVGIYYCMQTLQTPITFGQGTRLEIKR
notes: as for B1
For B14, the Kd was 0.142 nM, the koff worked out at 6.96e-05 s⁻¹ and the kon was found to be 489000 M⁻¹ s⁻¹.

B15: PR006145 (antibody, human IgG1, kappa, V domains shown)
VH: EVQLVESGGVLVQPGGSLRLSCAASGFTFSSYWMTWVRQAPGKGLEWVANIKQEGSEKYYVDSVKGRFTISRDNAKNSLFLQMNSLRAEDTAVYYCARTLIFDYWGQGTLVTVSS
VL: DIVMTQSPLSLPVTPGEPASISCRSSQSLLHSTGYSSLEWYLQKPGQSPQLLIYLGSNRASGVPDRFSGSGSGTDFTLKISRVEAEDVGIYYCMQTLQTPITFGQGTRLEIKR
notes: as for B1
For the molecule B15, binding was characterised by a dissociation constant (Kd) of 0.305 nM, the koff turned out to be 6.75e-05 s⁻¹ and the kon is 222000 M⁻¹ s⁻¹.

B16: PR302334-10 (antibody, human IgG1, kappa, V domains shown)
VH: EVQLVESGGGLVQPGGSLRLSCAASGFTFSTYAMSWVRQAPGKGLEWVASIRSGGTTYYPDSVKGRFTISRDNSKNTLYLQMNSLRAEDTAVYYCTRGIDWGQGTTVTVSS
VL: DIVMTQSPDSLAVSLGERATINCKASQSVNNDVAWYQQKPGQPPRLLIYYASNRYTGVPDRFSGSGSGTDFTLTISSLQAEDLAVYFCQQDYSSWTFGGGTKVEIKR
notes: Humanized variant of PR302334
B16: the Kd is < 0.001 nM, the koff was < 1e-07 s⁻¹ and the kon came out at 6840 M⁻¹ s⁻¹.

B17: PR302334-8 (antibody, human IgG1, kappa, V domains shown)
VH: EVQLVESGGGLVQPGGSLRLSCAASGFTFSTYAMSWVRQAPGKGLEWVASIRSGGTTYYPDSVKGRFTISRDNSKNTLYLQMNSLRAEDTAVYYCTRGIDWGQGTTVTVSS
VL: EIVMTQSPATLSVSPGERATLSCKASQSVNNDVAWYQQKPGQAPRLLIYYASNRYTGIPARFSGSGSGTEFTLTISSLQSEDLAVYFCQQDYSSWTFGGGTKVEIKR
notes: Humanized variant of PR302334
B17: the Kd was < 0.001 nM, the koff is < 1e-07 s⁻¹ and the kon stood at 14700 M⁻¹ s⁻¹.

B18: PR302334-24 (antibody, human IgG1, kappa, V domains shown)
VH: EVQLVESGGGLVKPGGSLRLSCAASGFTFSTYAMSWVRQAPGKGLEWVASIRSGGTTYYPDSVKGRFTISRDNAKNSLYLQMNSLRAEDTAVYYCTRGIDWGQGTTVTVSS
VL: DIVMTQSPDSLAVSLGERATINCKASQSVNNDVAWYQQKPGQPPRLLIYYASNRYTGVPDRFSGSGSGTDFTLTISSLQAEDLAVYFCQQDYSSWTFGGGTKVEIKR
notes: Humanized variant of PR302334
In the case of B18, the Kd was < 0.001 nM, the off-rate constant (koff) is < 1e-07 s⁻¹ and the kon came out at 606000 M⁻¹ s⁻¹.
